The data set has as its system PCSK9 gene splice site. The format is cell-based, human. The conditions noted are these: for Editing % at Position 6: Human Primary Hepatocytes, gRNA co-transfected with ABE8.8 mRNA 1:1 by weight. On the procedure:
PCSK9 gRNAs were co-transfected with an equivalent amount of in vitro transcribed ABE8.8 mRNA MA002 (1:1 ratio by weight) into primary hepatocytes and processed as described in detailed methods. In one set of experiments, extracted genomic DNA was analyzed for base editing of the target splice site with next-generation sequencing of PCR amplicons generated around the target sites. Samples were prepared using the Nextera XT DNA library preparation kit (Illumina) according to the manufacturer's protocol. Briefly, two rounds of PCR were performed first to amplify the region of interest and second to add DNA sequences required for next generation sequencing and sample identification to the initial product. The final amplicon was sequenced on the Illumina MiSeq instrument according to the manufacturer's protocol.
Similarly, three gRNAs (GA098, GA099, GA100) were synthesized matching the 5′-[…]-3′ (SEQ ID NO: 15) (GA091) human protospacer sequence, as well as four gRNAs (GA067/GA101, GA102, GA103, GA347) matching the 5′-[…]-3′ (SEQ ID NO: 14) (GA067) cynomolgus protospacer sequence, but with more extensive chemical modifications of various kinds (Table 1). GA066 and GA095 contain the same chemical composition and modification pattern, as do GA067 and GA101 with one another. […] Each of the gRNAs described in Table 8, with an equivalent amount of in vitro transcribed ABE8.8 mRNA MA002 (1:1 ratio by weight), were co-transfected into primary human hepatocytes and primary cynomolgus hepatocytes via MessengerMax reagent, using various dilutions to assess for editing activity at different concentrations of test article. Three days after transfection, genomic DNA was harvested from the hepatocytes, and then assessed for base editing of the target splice site with next-generation sequencing.
Modifications and/or truncations to either the spacer or tracr portion of the gRNA was assessed by alteration of the GA066 spacer (5′-[…]-3′ (SEQ ID NO: 13)) (Table 12). […] Each of the gRNAs with an equivalent amount of in vitro transcribed ABE8.8 mRNA (1:1 ratio by weight) were co-transfected into primary human hepatocytes and primary cynomolgus hepatocytes and processed as described in detailed methods. […]

Like-named read-outs stand apart in the source and are kept apart here. In the oligonucleotide strings, read from the 5' end, every base follows the letter of its sugar. An asterisk marks phosphorothioate; unmarked linkages are phosphodiester. Other units and linkages are bracketed, terminal groups are in braces. A string of capitals states the bases alone. m = 2'-O-methyl; r = 2'-OH (RNA)

B1: GA391 (nucleic acid)
guide: mC*mC*rGrCrArCrCrUrUrGrGrCrGrCrArGrCrGrGmGrUrUrUrUrArGmAmGmCmUmArGmAmAmAmUmAmGmCmAmArGrUrUmArAmArAmUrAmAmGmGmCmUmArGrUmCmCrGrUrUrAmUmCrArAmCmUmUrGmAmAmAmAmAmGmUmGrGmCmAmCmCmGmAmGmUmCmGmGmUmGmCmU*mU*mU*mU
Turning to B1, the “Editing % at Position 6” value (312.5 ng/mL, rep1) amounted to 16.86%; the “Editing % at Position 6” value (312.5 ng/mL, rep2) amounted to 15.78%; the “Editing % at Position 6” value (625 ng/mL, rep1) is recorded as 27.12%; the “Editing % at Position 6” value (625 ng/mL, rep2) is reported as 18.67%; the “Editing % at Position 6” value (1250 ng/mL, rep1) is recorded as 25.43%; the “Editing % at Position 6” value (1250 ng/mL, rep2) stood at 27.3%. For the same molecule, the “Editing % at Position 6” value by setting is: (2500 ng/mL, rep1) 25.58%; (2500 ng/mL, rep2) 30.06%.

B2: GA089: PCSK9 gRNA for ABE8.8 splice site editing, Human/Cyno (nucleic acid)
guide: CCCCAGGCTGCAGCTCCCACGTTTTAGAGCTAGAAATAGCAAGTTAAAATAAGGCTAGTCCGTTATCAACTTGAAAAAGTGGCACCGAGTCGGTGCTTTT
modifications: 2'-O-methyl at 1, 2, other sugars and backbone not given here; further chemistry not fully specified
notes: PCSK9 gRNA for ABE8.8 splice site editing, Human/Cyno
As for B2, the “Human Primary Hepatocytes-splice site editing % 1250 ng/mL” value was determined as 5.4%, the “Human Primary Hepatocytes-splice site editing % 2500 ng/mL” value stood at 14.1% and the “Human Primary Hepatocytes-splice site editing % 5000 ng/mL” value was 18.1%.

B3: GA083: PCSK9 gRNA for ABE8.8 splice site editing, Human/Cyno (nucleic acid)
guide: UAAGGCCCAAGGGGGCAAGCGTTTTAGAGCTAGAAATAGCAAGTTAAAATAAGGCTAGTCCGTTATCAACTTGAAAAAGTGGCACCGAGTCGGTGCTTTT
modifications: 2'-O-methyl at 1, 2, other sugars and backbone not given here; further chemistry not fully specified
notes: as for B2
Regarding B3, the “Human Primary Hepatocytes-splice site editing % 1250 ng/mL” value was 0.2%, the “Human Primary Hepatocytes-splice site editing % 2500 ng/mL” value came to 0.2% and the “Human Primary Hepatocytes-splice site editing % 5000 ng/mL” value is 0.2%.

B4: GA076: PCSK9 gRNA for ABE8.8 splice site editing, Human/Cyno (nucleic acid)
guide: GAAAGACGGAGGCAGCCTGGGTTTTAGAGCTAGAAATAGCAAGTTAAAATAAGGCTAGTCCGTTATCAACTTGAAAAAGTGGCACCGAGTCGGTGCTTTT
modifications: 2'-O-methyl at 1, 2, other sugars, backbone and T or U not given here; further chemistry not fully specified
notes: as for B2
Turning to B4, the “Human Primary Hepatocytes-splice site editing % 1250 ng/mL” value came to 1.6%, the “Human Primary Hepatocytes-splice site editing % 2500 ng/mL” value was 3.9% and the “Human Primary Hepatocytes-splice site editing % 5000 ng/mL” value is recorded as 4.9%.

B5: GA082: PCSK9 gRNA for ABE8.8 splice site editing, Human/Cyno (nucleic acid)
guide: CTTACCTGCCCCATGGGTGCGTTTTAGAGCTAGAAATAGCAAGTTAAAATAAGGCTAGTCCGTTATCAACTTGAAAAAGTGGCACCGAGTCGGTGCTTTT
modifications: listed as RNA; modified_base 1: mod_base = OTHER; note = 2'-O-Methyl-cytidine phosphorothioate; modified_base 2: mod_base = OTHER; note = 2'-O-Methyl-uridine phosphorothioate; modified_bas
notes: as for B2
Consider B5, for which the “Human Primary Hepatocytes-splice site editing % 1250 ng/mL” value is recorded as 5.6%, the “Human Primary Hepatocytes-splice site editing % 2500 ng/mL” value is reported as 9.6% and the “Human Primary Hepatocytes-splice site editing % 5000 ng/mL” value came to 9.8%.

B6: GA086: PCSK9 gRNA for ABE8.8 splice site editing, Human/Cyno (nucleic acid)
guide: TTCACCTGCTCCTGAGGGGCGTTTTAGAGCTAGAAATAGCAAGTTAAAATAAGGCTAGTCCGTTATCAACTTGAAAAAGTGGCACCGAGTCGGTGCTTTT
modifications: listed as RNA; modified_base 1: mod_base = OTHER; note = 2'-O-Methyl-uridine phosphorothioate; modified_base 2: mod_base = OTHER; modified_base
notes: as for B2
For the molecule B6, the “Human Primary Hepatocytes-splice site editing % 1250 ng/mL” value came out at 2.9%, the “Human Primary Hepatocytes-splice site editing % 2500 ng/mL” value is on record as 4.9% and the “Human Primary Hepatocytes-splice site editing % 5000 ng/mL” value was found to be 5.7%.

B7: GA075: PCSK9 gRNA for ABE8.8 splice site editing, Human/Cyno (nucleic acid)
guide: TTGGAAAGACGGAGGCAGCCGTTTTAGAGCTAGAAATAGCAAGTTAAAATAAGGCTAGTCCGTTATCAACTTGAAAAAGTGGCACCGAGTCGGTGCTTTT
modifications: listed as RNA; modified_base 1: mod_base = OTHER; note = 2'-O-Methyl-uridine phosphorothioate; modified_base 2: mod_base = OTHER; modified_base
notes: as for B2
In the case of B7, the “Human Primary Hepatocytes-splice site editing % 1250 ng/mL” value was 1.8%, the “Human Primary Hepatocytes-splice site editing % 2500 ng/mL” value turned out to be 3.1% and the “Human Primary Hepatocytes-splice site editing % 5000 ng/mL” value was 5.5%.

B8: GA084: PCSK9 gRNA for ABE8.8 splice site editing, Human/Cyno (nucleic acid)
guide: CCTCTTCACCTGCTCCTGAGGTTTTAGAGCTAGAAATAGCAAGTTAAAATAAGGCTAGTCCGTTATCAACTTGAAAAAGTGGCACCGAGTCGGTGCTTTT
modifications: 2'-O-methyl at 1, 2, other sugars and backbone not given here; further chemistry not fully specified
notes: as for B2
For B8, the “Human Primary Hepatocytes-splice site editing % 1250 ng/mL” value turned out to be 4.9%, the “Human Primary Hepatocytes-splice site editing % 2500 ng/mL” value stood at 7.6% and the “Human Primary Hepatocytes-splice site editing % 5000 ng/mL” value is reported as 8.6%.

B9: GA090: PCSK9 gRNA for ABE8.8 splice site editing, Human/Cyno (nucleic acid)
guide: GCAGGTGACCGTGGCCTGCGGTTTTAGAGCTAGAAATAGCAAGTTAAAATAAGGCTAGTCCGTTATCAACTTGAAAAAGTGGCACCGAGTCGGTGCTTTT
modifications: listed as RNA; modified_base 1: mod_base = OTHER; note = 2'-O-Methyl-guanosine phosphorothioate; modified_base 2: mod_base = OTHER; note = 2'-O-Methyl-cytidine phosphorothioate; modified_b
notes: as for B2
For B9, the “Human Primary Hepatocytes-splice site editing % 1250 ng/mL” value came to 0.3%, the “Human Primary Hepatocytes-splice site editing % 2500 ng/mL” value is 0.5% and the “Human Primary Hepatocytes-splice site editing % 5000 ng/mL” value is given as 0.4%.

B10: GA078: PCSK9 gRNA for ABE8.8 splice site editing, Human/Cyno (nucleic acid)
guide: AGCACCTACCTCGGGAGCTGGTTTTAGAGCTAGAAATAGCAAGTTAAAATAAGGCTAGTCCGTTATCAACTTGAAAAAGTGGCACCGAGTCGGTGCTTTT
modifications: listed as RNA; note = Description of Combined DNA/RNA Molecule: Synthetic oligonucleotide; modified_base 1: mod_base = OTHER; note = 2'-O-Methyl-adenosine phosphorothioate; modified_base
notes: as for B2
For B10, the “Human Primary Hepatocytes-splice site editing % 1250 ng/mL” value was 6.5%, the “Human Primary Hepatocytes-splice site editing % 2500 ng/mL” value worked out at 10.0% and the “Human Primary Hepatocytes-splice site editing % 5000 ng/mL” value is listed as 12.6%.

B11: GA085: PCSK9 gRNA for ABE8.8 splice site editing, Human/Cyno (nucleic acid)
guide: GCCTCTTCACCTGCTCCTGAGTTTTAGAGCTAGAAATAGCAAGTTAAAATAAGGCTAGTCCGTTATCAACTTGAAAAAGTGGCACCGAGTCGGTGCTTTT
modifications: listed as RNA; modified_base 1: mod_base = OTHER; note = 2'-O-Methyl-guanosine phosphorothioate; modified_base 2: mod_base = OTHER; note = 2'-O-Methyl-cytidine phosphorothioate; modified_b
notes: as for B2
As to B11, the “Human Primary Hepatocytes-splice site editing % 1250 ng/mL” value is given as 1.2%, the “Human Primary Hepatocytes-splice site editing % 2500 ng/mL” value was 1.8% and the “Human Primary Hepatocytes-splice site editing % 5000 ng/mL” value was 2.4%.
